The labels stand for the following.
T1: Flag-HA-ID2 (human) (UniProt Q02363)
T1 sequence: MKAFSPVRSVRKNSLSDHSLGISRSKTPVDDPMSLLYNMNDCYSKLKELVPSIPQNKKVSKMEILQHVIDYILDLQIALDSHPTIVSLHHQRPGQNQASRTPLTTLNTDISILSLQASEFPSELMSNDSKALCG

B1: Elongator complex protein 4 (protein)
chain: MAAVATCGSVAASTGSAVATASKSNVTSFQRRGPRASVTNDSGPRLVSIAGTRPSVRNGQLLVSTGLPALDQLLGGGLAVGTVLLIEEDKYNIYSPLLFKYFLAEGIVNGHTLLVASAKEDPANILQELPAPLLDDKCKKEFDEDVYNHKTPESNIKMKIAWRYQLLPKMEIGPVSSSRFGHYYDASKRMPQELIEASNWHGFFLPEKISSTLKVEPCSLTPGYTKLLQFIQNIIYEEGFDGSNPQKKQRNILRIGIQNLGSPLWGDDICCAENGGNSHSLTKFLYVLRGLLRTSLSACIITMPTHLIQNKAIIARVTTLSDVVVGLESFIGSERETNPLYKDYHGLIHIRQIPRLNNLICDESDVKDLAFKLKRKLFTIERLHLPPDLSDTVSRSSKMDLAESAKRLGPGCGMMAGGKKHLDF

Several values for one entry are separate records, joined by “and”; a condition that tells them apart may be missing. Equal values may be shown once.

The assay has as its target T1, Flag-HA-ID2 (human). Put plainly: tandem Flag/HA affinity purification of Flag-HA-ID2 complexes from NCI-H1299 cells, LC-MS/MS; CRAPome specificity score.
As for “78 kDa glucose-regulated protein (from UniProt P11021)”, the Calculated score [(#peptide*#xcorr)/(AveSC*MaxSC*Found# of Expt.)] was 0.000131 and 5.32e-05.
The value for “Elongation factor 1-alpha 2 (from UniProt Q05639)” was 1.18e-05; that for “GR75_HUMAN Stress-70 protein (from UniProt P38646)” was 1.1e-05.
In the case of “Heat shock 70 kDa protein 1A/1B (from UniProt P0DMV8)”, the Calculated score [(#peptide*#xcorr)/(AveSC*MaxSC*Found# of Expt.)] is 4.5e-05.
The value for “Heat shock cognate 71 kDa protein (NP_694881) (from UniProt P11142-2)” was 1.88e-05; that for “Protein arginine N-methyltransferase 5 (from UniProt O14744) (enzyme)” was 6.8e-07; that for “RING finger protein 113A (from UniProt O15541)” was 0.212.
The value for “Transcription factor E2-alpha (from UniProt P15923)” was 23.8; that for Tubulin alpha-1B chain was 1.25e-05.
The value for Tubulin beta chain was 7.15e-06; that for “heat shock 70 kDa protein 1-like (from UniProt P34931)” was 7.39e-06.
On to “heat shock cognate 71 kDa protein isoform 1 (from UniProt P11142)”, for which the Calculated score [(#peptide*#xcorr)/(AveSC*MaxSC*Found# of Expt.)] is 3.81e-06.
As for “transcription factor 12 isoform b (from UniProt Q99081)”, the Calculated score [(#peptide*#xcorr)/(AveSC*MaxSC*Found# of Expt.)] was 7.71.
The value for tubulin beta-4B chain was 1.79e-05; that for B1 was 0.0043.

The record behind these values is patent US20180303913A1.
